Results on 15 molecules are retold here after patent US20140363808, “[…] […] METHOD BASED ON […] WITHOUT TARGET IMMOBILIZATION AND THE […] OBTAINED FROM THE METHOD” (KOREA UNIVERSITY RESEARCH AND BUSINESS FOUNDATION, published 2014).

Holding throughout (details): tags: AdipoGen AG-40A-0031; chain copies: 2
The target in series [1] is T1, Nampt (nicotinamide phosphoribosyltransferase) (UniProt P43490 P43490:1-491). Nature of the series: SPR; 200 nM Nampt. The protocol: An experiment showing that 15 kinds of aptamers strongly bound to Nampt were not bound to other blood proteins but specifically bound to Nampt only was carried out by immobilizing aptamers onto a gold chip with a surface […] resonance device (SPR).
T1 sequence (P43490 whole entry, one chain of several): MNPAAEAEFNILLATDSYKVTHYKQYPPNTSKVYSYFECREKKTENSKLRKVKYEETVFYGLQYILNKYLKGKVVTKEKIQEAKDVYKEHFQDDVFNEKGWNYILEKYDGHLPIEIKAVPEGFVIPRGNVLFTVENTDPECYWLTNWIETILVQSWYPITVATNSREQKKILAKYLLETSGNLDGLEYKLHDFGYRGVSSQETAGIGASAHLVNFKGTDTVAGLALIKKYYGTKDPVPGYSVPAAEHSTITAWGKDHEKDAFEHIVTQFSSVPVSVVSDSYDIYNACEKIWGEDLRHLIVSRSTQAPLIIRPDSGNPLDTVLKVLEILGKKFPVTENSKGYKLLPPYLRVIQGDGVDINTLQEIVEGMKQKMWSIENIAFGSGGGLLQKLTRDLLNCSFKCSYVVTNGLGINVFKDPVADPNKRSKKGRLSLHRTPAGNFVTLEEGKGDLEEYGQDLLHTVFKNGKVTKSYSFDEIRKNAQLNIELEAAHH
Firstly, a carboxyl group (—COOH) was formed on a surface of a gold chip with 50 mM of 3,3′-dithiodipropionic acid, and a self-assembly monolayer was formed with EDC/NHS. Then, streptavidin was immobilized thereon, and each aptamer bound to biotin was immobilized. Herein, 200 nM Nampt and the controls, i.e., RBP4, adiponectin, resistin, vaspin, and HAS, were reacted for 30 minutes in respective buffer solutions (100 mM NaCl, 2 mM MgCl₂, 5 mM KCl, 1 mM CaCl₂, and 20 mM Tris-Cl buffer solution containing 0.02% Tween 20, pH 7.6), and non-bound proteins were washed off with the same buffer solutions.

The target of series [2] is T1, Nampt (nicotinamide …). As to the kind of experiment: SPR; aptamer immobilized; 100 mM NaCl, 2 mM MgCl2, 5 mM KCl, 1 mM CaCl2, 20 mM Tris, 0.02% Tween 20, pH 7.6. The protocol: (§1) Aptamers G35, G40, and G55 had the highest specificity and binding force among the 15 kinds of aptamers specifically bound to Nampt and produced in Example 1. Binding of these aptamers with respect to Nampt was analyzed. The aptamers were immobilized onto a gold chip in the same manner as described above, and Nampt at various concentrations of 20 nM to 400 nM was reacted for 30 minutes in buffer solutions (100 mM NaCl, 2 mM MgCl₂, 5 mM KCl, 1 mM CaCl₂, and 20 mM Tris-Cl buffer solution containing 0.02% Tween 20, pH 7.6). In order to obtain a dissociation constant, each reaction level was plotted by a nonlinear regression method and a single site saturation ligand binding method with Graphpad Prism 5.0. In this case, the equation Y=Bₘₐₓ*X̂h/(Kd̂h+X̂h) was used (y represents a saturation degree, Bₘₐₓ represents a maximal binding site, Kd represents a dissociation constant, X represents non-bound Nampt, and h represents a hill slope constant).

Series [3] deals with T1, Nampt (nicotinamide …). Nature of the series: SPR; aptamer immobilized; same buffer pH 7.6. How it is done:
as §1

B1: G54 (ssDNA)
DNA: CGTACGGAATTCGCTAGCGTGGCGGGGCGCGGGTGCCGGAGTTGATGTGGATCCGAGCTCCACGTG
On to B1, for which, in series [1], the binding result is recorded as “binds”.

B2: G39 (ssDNA)
DNA: CGTACGGAATTCGCTAGCGGTTGCCGTGCGGCGTGCGAGTTGGGCCTTGGATCCGAGCTCCACGTG
In the case of B2, the binding result in series [1] is recorded as “binds”.

B3: G32 (ssDNA)
DNA: CGTACGGAATTCGCTAGCGTGGACTGGCGGAAATCTTGGTATGCCCATGGATCCGAGCTCCACGTG
In the case of B3, the binding result in series [1] was “binds”.

B4: G21 (ssDNA)
DNA: CGTACGGAATTCGCTAGCGGGTTCGGGACGGATGAACGTGATAGCTGAGGATCCGAGCTCCACGTG
On to B4, for which the binding result in series [1] is “binds”.

B5: G26 (ssDNA)
DNA: CGTACGGAATTCGCTAGCATCGGGTGCAGAGTCGGAGCTAACGGCAGCGGATCCGAGCTCCACGTG
For B5, the binding result in series [1] is given as “binds”.

B6: G12 (ssDNA)
DNA: CGTACGGAATTCGCTAGCGGGTGCCGTGGCACGAGGCCGTGGTCCAGGGGATCCGAGCTCCACGTG
B6: the binding result in series [1] is given as “binds”.

B7: G55 (ssDNA)
DNA: CGTACGGAATTCGCTAGCGGACTGGAGTCTAGACCGGGTAGCTGTGGTGGATCCGAGCTCCACGTG
For B7, the Kd in series [2] worked out at 71.7 nM.

B8: G27 (ssDNA)
DNA: CGTACGGAATTCGCTAGCGGGTGGAGTACGTGGGGGTCATCCTGTGTGGGATCCGAGCTCCACGTG
Turning to B8, the binding result in series [1] was “binds”.

B9: G37 (ssDNA)
DNA: CGTACGGAATTCGCTAGCGGGCGATGTGCGGAATGTGGGATTGCGGGTGGATCCGAGCTCCACGTG
Take B9: in series [1], the binding result is “binds”.

B10: G9 (ssDNA)
DNA: CGTACGGAATTCGCTAGCGGGGATGGGCCGCTCTGCAGAATGTTCTGTGGATCCGAGCTCCACGTG
As for B10, the binding result in series [1] is on record as “binds”.

B11: G40 (ssDNA)
DNA: CGTACGGAATTCGCTAGCCGGGGTGGGAACCAGTCTTGCGCGGGTGACGGATCCGAGCTCCACGTG
B11 returned a Kd in series [3] of 114 nM. In other words, the sub-micromolar range.

B12: G15 (ssDNA)
DNA: CGTACGGAATTCGCTAGCAGCCGGCGGGTGCTCAATGTTGGGGGTTGGGATCCGAGCTCCACGTG
In the case of B12, the binding result in series [1] is “binds”.

B13: G4 (ssDNA)
DNA: CGTACGGAATTCGCTAGCGTGATGTGGGGGTACGCTCGTGGCAGGCTTGGATCCGAGCTCCACGTG
Take B13: in series [1], the binding result is “binds”.

B14: G56 (ssDNA)
DNA: CGTACGGAATTCGCTAGCCCGTGGGGTAGCGGGGTCGTGTGATATGTGGATCCGAGCTCCACGTG
For the molecule B14, the binding result in series [1] is given as “binds”.

B15: G35 (ssDNA)
DNA: CGTACGGAATTCGCTAGCGGTGACGGACGTGGGGTGCACGAAGGGAGGGGATCCGAGCTCCACGTG
In series [3], B15 had a Kd of 117 nM.
